The target in assay [1] is WHRN with PDZ2 deleted (mouse) (UniProt Q80VW5). Nature of the assay: co-IP; cotransfected HEK293 cells, starved 12 h, lysed in 50 mM Tris-HCl pH 7.4, 150 mM NaCl, 1% Triton, 1% NP-40, 2 mM EDTA; anti-Flag M2 or anti-Myc antibody-conjugated agarose, 4 °C overnight; blots against the tags.
The target of assay [2] is T1, WHRN-PDZ2 domain, purified (mouse).
T1 sequence (Q80VW5 whole entry, looked up): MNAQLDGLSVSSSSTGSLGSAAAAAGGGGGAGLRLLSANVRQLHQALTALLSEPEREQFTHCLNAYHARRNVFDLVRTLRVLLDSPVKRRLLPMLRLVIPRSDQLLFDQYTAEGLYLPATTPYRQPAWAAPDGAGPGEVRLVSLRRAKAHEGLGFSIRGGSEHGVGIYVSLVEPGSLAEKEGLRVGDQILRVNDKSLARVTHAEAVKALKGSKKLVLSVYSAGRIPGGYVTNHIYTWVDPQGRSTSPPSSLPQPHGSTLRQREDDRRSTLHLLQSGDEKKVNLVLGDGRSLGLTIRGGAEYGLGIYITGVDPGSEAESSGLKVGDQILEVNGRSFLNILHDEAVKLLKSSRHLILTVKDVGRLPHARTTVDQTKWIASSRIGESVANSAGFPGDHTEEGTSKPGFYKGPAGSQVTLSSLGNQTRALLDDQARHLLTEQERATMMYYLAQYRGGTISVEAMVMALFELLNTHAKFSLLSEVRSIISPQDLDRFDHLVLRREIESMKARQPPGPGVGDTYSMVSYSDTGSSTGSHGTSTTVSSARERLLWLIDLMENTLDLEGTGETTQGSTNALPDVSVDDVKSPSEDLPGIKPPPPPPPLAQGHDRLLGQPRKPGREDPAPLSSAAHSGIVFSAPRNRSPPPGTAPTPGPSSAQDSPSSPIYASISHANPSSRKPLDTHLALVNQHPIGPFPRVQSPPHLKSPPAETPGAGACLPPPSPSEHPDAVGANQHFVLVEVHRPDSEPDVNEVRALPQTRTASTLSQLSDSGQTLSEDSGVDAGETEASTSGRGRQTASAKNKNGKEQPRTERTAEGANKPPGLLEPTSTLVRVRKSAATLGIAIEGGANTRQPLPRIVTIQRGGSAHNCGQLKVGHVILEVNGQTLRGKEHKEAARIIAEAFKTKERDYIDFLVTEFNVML
Nature of the assay: SPR; BiaCore T200; WHRN-PDZ1 or WHRN-PDZ2 immobilised on a CM5 chip, peptide as analyte in serial dilutions, 120 s association and 120 s dissociation; 10 mM HEPES, 150 mM NaCl, 0.05% Surfactant P20, 0.01% DDM, 0.002% CHS, pH 7.4. (Surface plasmon resonance follows binding to a sensor surface in real time, without labels.)

The target of assay [3] is T2, WHRN-PDZ1 domain, purified (mouse, UniProt Q80VW5 137-225).
T2 construct: first PDZ domain of whirlin (WHRN), mouse; 13C,15N- or 15N-labelled for NMR; Residues up to A222 were assigned; source: purified protein
T2 sequence: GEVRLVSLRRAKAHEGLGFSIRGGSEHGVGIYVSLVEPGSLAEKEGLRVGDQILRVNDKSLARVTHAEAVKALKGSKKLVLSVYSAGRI
The description is as above. The note with it: both partners purified.

Assay [4] has as its target T2, WHRN-PDZ1 domain, purified. Briefly: ITC; ITC200; purified PDZ protein 50 uM, peptide 1 mM; 20 mM Tris, 200 mM NaCl, 2 mM EDTA, pH 7.4. Conditions: both partners purified.

These results are taken from PMC10238197, “Deafness‐Associated ADGRV1 Mutation Impairs USH2A Stability through Improper Phosphorylation of WHRN and WDSUB1 Recruitment” (Advanced Science, 2023).

As for “ADGRV1 of the PDZ-truncation co-IP (Figure 6b,c) (from UniProt Q8VHN7 4333-6298) (receptor)”, in assay [1], the decrease of co-immunoprecipitated ADGRV1 against WT WHRN came out at 85%.
Regarding RRIPIADTHL [ADGRV1p, 10-residue C-terminal tail peptide of ADGRV1 harboring the PDZ-binding motif], the Kd in assay [2] is 61.2 µM.

B1: USH2Ap, 10-residue C-terminal tail peptide of USH2A harboring the PDZ-binding motif (peptide, UniProt Q2QI47 5184-5193, looked up)
peptide: EHTAFTDTHL
notes: also called USH2A C-terminal peptide; source: synthetic peptide
For B1, the Kd in assay [3] turned out to be 23 ± 2.01 µM; in assay [4], 28.4 ± 4.2 µM.

Broadly, the Kd is a measure of binding affinity in units of concentration. Low readings indicate higher affinity, high ones lower affinity.
